Article PMC6020246, “Molecular characterization of a novel chitinase CmChi1 from Chitinolyticbacter meiyuanensis SYBC-H1 and its use in N-acetyl-D-glucosamine production” (Biotechnology for Biofuels, 2018)

Test system: T1, CC(=O)N[C@H]1[C@H](Oc2ccc([N+](=O)[O-])cc2)O[C@H](CO)[C@@H](O[C@@H]2O[C@H](CO)[C@@H](O)[C@H](O)[C@H]2NC(C)=O)[C@@H]1O
T1 construct: full length 658 residues with predicted signal peptide (residue 23) kept, C-terminal His6 (pET-28a(+)), E. coli BL21(DE3); peptides AATPTPVSAT, EDYKVLKNA, LTFINYAFGNVYQK
Assay: p-nitrophenol release, Lineweaver-Burk plot
Type: biochemical, Chitinolyticbacter meiyuanensis
Conditions: 50 mM sodium citrate pH 5.2, 50 °C, 5 min, apparent, text b64 prints the same number as mg/mL, table unit agrees with printed kcat/Km 73.5 mL/s/μmol
Source text: p-nitrophenol release, Lineweaver-Burk plot on CmChi1

CmChi1 (Chitinolyticbacter meiyuanensis), sequence (chain, as listed by the source): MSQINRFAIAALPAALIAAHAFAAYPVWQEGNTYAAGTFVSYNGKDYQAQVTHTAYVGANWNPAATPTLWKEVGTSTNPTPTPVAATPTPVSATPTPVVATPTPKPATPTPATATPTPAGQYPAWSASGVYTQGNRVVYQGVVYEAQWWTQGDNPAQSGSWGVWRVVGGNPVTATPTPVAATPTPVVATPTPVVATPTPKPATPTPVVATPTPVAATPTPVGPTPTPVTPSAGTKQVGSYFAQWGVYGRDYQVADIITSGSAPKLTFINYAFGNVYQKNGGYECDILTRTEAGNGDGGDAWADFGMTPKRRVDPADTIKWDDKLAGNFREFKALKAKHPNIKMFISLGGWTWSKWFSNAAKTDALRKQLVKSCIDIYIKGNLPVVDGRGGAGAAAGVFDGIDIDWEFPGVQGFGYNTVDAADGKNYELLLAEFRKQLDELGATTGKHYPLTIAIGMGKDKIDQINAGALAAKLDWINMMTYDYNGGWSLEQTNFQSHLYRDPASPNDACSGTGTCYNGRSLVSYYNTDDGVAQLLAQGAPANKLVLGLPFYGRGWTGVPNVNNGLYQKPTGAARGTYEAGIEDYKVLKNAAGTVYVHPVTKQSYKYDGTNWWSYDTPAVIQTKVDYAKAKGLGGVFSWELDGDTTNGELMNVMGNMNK

CmChi1 (Chitinolyticbacter meiyuanensis)
Km: 580 ± 40 µM
Vmax: 108.6 ± 3.3 (μmol/min/L)
kcat: 42.5 ± 1.4 s⁻¹
kcat/Km: 73.5 ± 2.6 (mL/s/μmol)
